Substitutions are numbered along the chain they refer to. Read-outs that look alike come from different tables or passages of the source.
How the values were obtained:
Test in all cases: EMSA
[1] = biological target: T1, VAL1-B3 wt (C-terminal His6) (Arabidopsis thaliana, UniProt Q8W4L5 288-397)
T1 sequence: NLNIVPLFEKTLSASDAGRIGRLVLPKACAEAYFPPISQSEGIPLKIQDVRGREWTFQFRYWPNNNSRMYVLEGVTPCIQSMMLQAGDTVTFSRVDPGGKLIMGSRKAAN

[2] = biological target: T2, VAL1-B3 Q345R (Arabidopsis thaliana, UniProt Q8W4L5 288-397, Q345R)
T2 sequence: T1 sequence with Q58R

[3] = biological target: T1, VAL1-B3 wt (C-terminal His6); remark: listed apart in the source
[4] = biological target: T3, VAL1-B3 I307A (Arabidopsis thaliana, UniProt Q8W4L5 288-397, I307A)
T3 sequence: T1 sequence with I20A

[5] = biological target: T4, VAL1-B3 R306A (Arabidopsis thaliana, UniProt Q8W4L5 288-397, R306A)
T4 sequence: T1 sequence with R19A

[6] = biological target: T5, VAL1-B3 N352A (Arabidopsis thaliana, UniProt Q8W4L5 288-397, N352A)
T5 sequence: T1 sequence with N65A

[7] = biological target: T1, VAL1-B3 wt (C-terminal His6); remark: listed apart in the source

B1: 12/12_3A (dsDNA)
DNA 1: CGGTGAATGGCT
DNA 2: AGCCATTCACCG
[1]
  binding result: no binding

B2: 12/12_6A (dsDNA)
DNA 1: CGGTGCATAGCT
DNA 2: AGCTATGCACCG
[1]
  binding result: no binding

B3: 12/12_2C (dsDNA)
DNA 1: CGGTCCATGGCT
DNA 2: AGCCATGGACCG
[1]
  binding result: no binding

B4: 12/12SP (dsDNA)
DNA 1: CGGTGCATGGCT
DNA 2: AGCCATGCACCG
[2]
  binding result: binds
[3]
  Kd: ~3000 nM
[4]
  binding result: binds
[5]
  binding result: no binding
[6]
  binding result: binds

B5: 12/12SP_2 (dsDNA)
DNA 1: CGCTGCATGCCT
DNA 2: AGGCATGCAGCG
[7]
  binding result: binds

B6: 12/12_4T (dsDNA)
DNA 1: CGGTGCTTGGCT
DNA 2: AGCCAAGCACCG
[1]
  binding result: no binding

B7: 12/12_6C (dsDNA)
DNA 1: CGGTGCATCGCT
DNA 2: AGCGATGCACCG
[1]
  binding result: no binding

B8: 12/12_6T (dsDNA)
DNA 1: CGGTGCATTGCT
DNA 2: AGCAATGCACCG
[1]
  binding result: no binding

B9: 12/12_3T (dsDNA)
DNA 1: CGGTGTATGGCT
DNA 2: AGCCATACACCG
[1]
  binding result: no binding

B10: 12/12_1A (dsDNA)
DNA 1: CGGAGCATGGCT
DNA 2: AGCCATGCTCCG
[1]
  binding result: no binding

B11: 12/12_1C (dsDNA)
DNA 1: CGGCGCATGGCT
DNA 2: AGCCATGCGCCG
[1]
  binding result: no binding

B12: 12/12_5C (dsDNA)
DNA 1: CGGTGCACGGCT
DNA 2: AGCCGTGCACCG
[1]
  binding result: no binding

B13: 12/12_5A (dsDNA)
DNA 1: CGGTGCAAGGCT
DNA 2: AGCCTTGCACCG
[1]
  binding result: no binding

B14: 12/12_2A (dsDNA)
DNA 1: CGGTACATGGCT
DNA 2: AGCCATGTACCG
[1]
  binding result: no binding

B15: 12/12_2T (dsDNA)
DNA 1: CGGTTCATGGCT
DNA 2: AGCCATGAACCG
[1]
  binding result: no binding

— PMC5934628
